{"source": "patent US20090092971", "biological_target": "active RhoA, P61586", "sequence (P61586 1-190)": "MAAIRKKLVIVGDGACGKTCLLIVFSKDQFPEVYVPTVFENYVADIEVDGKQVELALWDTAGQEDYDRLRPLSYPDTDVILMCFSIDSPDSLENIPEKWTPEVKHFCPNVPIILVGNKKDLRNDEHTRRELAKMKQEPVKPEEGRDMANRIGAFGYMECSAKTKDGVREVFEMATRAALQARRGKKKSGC"}
{"protein": "GEF-H1 (Rho guanine nucleotide exchange factor H1) (protein) MKEAKDARYTNGHLFTTISVSGMTMCYACNKSITAKEALICPTCNVTIHNRCKDTLANCTKVKQKQQKAALLKNNTALQSVSLRSKTTIRERPSSAIYPSDSFRQSLLGSRRGRSSLSLAKSVSTTNIAGHFNDESPLGLRRILSQSTDSLNMRNRTLSVESLIDEEVIYSELMSDFEMDEKDFAADSWSLAVDSSFLQQHKKEVMKQQDVIYELIQTELHHVRTLKIMTRLFRTGMLEELHLEPGVVQGLFPCVDELSDIHTRFLSQLLERRRQALCPGSTRNFVIHRLGDLLISQFSGPSAEQMCKTYSEFCSRHSKALKLYKELYARDKRFQQFIRKVTRPAVLKRHGVQECILLVTQRITKYPLLISRILQHSHGIEEERQDLTTALGLVKELLSNVDEGIYQLEKGARLQEIYNRMDPRAQTPVPGKGPFGREELLRRKLIHDGCLLWKTATGRFKDVLVLLMTDVLVFLQEKDQKYIFPTLDKPSVVSLQNLIVRDIANQEKGMFLISAAPPEMYEVHTASRDDRSTWIRVIQQSVRTCPSREDFPLIETEDEAYLRRIKMELQQKDRALVELLREKVGLFAEMTHFQAEEDGGSGMALPTLPRGLFRSESLESPRGERLLQDAIREVEGLKDLLVGPGVELLLTPREPALPLEPDSGGNTSPGVTANGEARTFNGSIELCRADSDSSQRDRNGNQLRSPQEEALQRLVNLYGLLHGLQAAVAQQDTLMEARFPEGPERREKLCRANSRDGEAGRAGAAPVAPEKQATELALLQRQHALLQEELRRCRRLGEERATEAGSLEARLRESEQARALLEREAEEARRQLAALGQTEPLPAEAPWARRPVDPRRRSLPAGDALYLSFNPPQPSRGTDRLDLPVTTRSVHRNFEDRERQELGSPEERLQDSSDPDTGSEEEGSSRLSPPHSPRDFTRMQDIPEETESRDGEAVASES", "values": [{"measurement": "RhoA activity (active RhoA pulled down with GST-Rhotekin-RBD, western blot)", "result": "the RhoA activity increased by at least 5 times"}]}
